Measured values published in the DeepSol protein solubility set.

Assay: soluble on expression in E. coli; label from the status in PepcDB or PDB records

Sequence	soluble on expression in E. coli
MVHSNGAITSTILKARHADVVRKTSLHHANDLTLIDLVLNVQRLLALPSDANFVLKYKDEEGDLVTLAEDSDLLLALHTSGATLDVTVVVDSRAREAVHDVQKQVEQIKLDVGKLLGALSALDVAQIAEQSNTSVANLSAPKQSHHDNIVFQKSFEAAPPSPVPSEKAELPATIQPSVHEQFNHRPAHVEEEIPLENHYAPPPHQQIPDDLNTSFSSQPPPPIEQFGAIPPPNATIPSFPTSNAASPPVQEFAPPPPQQQQQQFQAPPPPMASHSSISSTPVQQQGFAPPQQFGGPPPSGPPSEYGGYAPPQQQQQQFGAPPPQGAPQQGFGAPPQGPPQGGPPQGSFGAPPPQQFHAPSPQSFGGPPPPVSSAPGNFAPPPQSGPPGAFAPPPSAFGAPQGPGGPGGYGPPPPGGPGAPGSYGPPQGGPGGFGPPPPGGPGAYGPPPTGFPPVGAPPPGAAGAPGGNPFARGPSATGYRQSPYQQ	not soluble
MVIHQIKILQSVATSIVEGGRGVTGTPFPNQPDKPLKLYEFEGSPFSRRVREVLTLLNLDVEIYPCPKGGQKYRAIVKEKGGKLQFPFLIDENTGDQLYESQKIIHHLFKHYGKTGHTPEKYQHYPKIPVIGLIATLLNAARGVWVNKKIIHRAAPEQLLELWSFEASPYSRVVRDILTELEIPYVLHNVSKERWQDMGPAILRLKPGPYIPLAGGKRDKMLPMMQGKMQVPYLVDPNTGIHLFESAQIVAYLKKQYGEV	not soluble
MVIIMQFYKEENFKEMHGLRVPEDWEVVRIGDFIKYIKGKKPAVMVDEELEGYYPYLSTEYLRDGIASKFVKITNKEIIVNENDILLLWDGSNAGEIFLGKKGILSSTMVKLEQKNKIMDDLYLFYSLKLKESFLKSQTKGTGIPHVDKKIFENIKIPLPPLEEQKQIAKILSDFDNLIGTINKQIEVLNKAKKGMMKKLFTKGVFEHKSFKKSEIGEIPEDWEVVKLKEVVDIQSGKYFKYSEFCENGVKCLKIDNVGFGKIFWETVSFLPEDYLNKYPQLVLKSGDIVLALNRPIIGGKIKIGILKDIDEPAILYQRVGRFIFKSEKIDKQFLFYLLMSEYFKKELSKLLIGTDQPYIRTPVLLNIKIPLPHLEEQKAMAERLKSIDNLIEIKRKEKEQIEKAKKKIMNLLLTGKIRVKNLNF	soluble
MVINCAFIGFGKSTTRYHLPYVLNRKDSWHVAHIFRRHAKPEEQAPIYSHIHFTSDLDEVLNDPDVKLVVVCTHADSHFEYAKRALEAGKNVLVEKPFTPTLAQAKELFALAKSKGLTVTPYQNRRFDSCFLTAKKAIESGKLGEIVEVESHFDYYRPVAETKPGLPQDGAFYGLGVHTMDQIISLFGRPDHVAYDIRSLRNKANPDDTFEAQLFYGDLKAIVKTSHLVKIDYPKFIVHGKKGSFIKYGIDQQETSLKANIMPGEPGFAADDSVGVLEYVNDEGVTVREEMKPEMGDYGRVYDALYQTITHGAPNYVKESEVLTNLEILERGFEQASPSTVTLAKLEHHHHHH	soluble
MVINQTFLQNNVMDKCNDKRKRGERDWDCPAEKDICISDRRYQLCMKELTNLVNNTRTHSHNDITFLKLNLKRKLMYDAAVEGDLLLKKNNYQYNKEFCKDIRWGLGDFGDIIMGTNMEGIGYSQVVENNLRSIFGTDEKAKQDRKQWWNESKEHIWRAMMFSLRSRLKEKFVWICKKDVTLKVEPQIYRWIREWGRDYMSELPKEQGKLNEKCASKLYYNNMAICMLPLCHDACKSYDQWITRKKKQWDVLSTKFSSVKKTQKIGTENIATAYDILKQELNGFKEATFENEINKRDNLYNHLCPCVVEEARKNTQENVKNVGSGVESKAASSNPITE	soluble
MVIRPVERSDVSALMQLASKTGGGLTSLPANEATLSARIERAIKTWQGELPKSEQGYVFVLEDSETGTVAGICAIEVAVGLNDPWYNYRVGTLVHASKELNVYNALPTLFLSNDHTGSSELCTLFLDPDWRKEGNGYLLSKSRFMFMAAFRDKFNDKVVAEMRGVIDEHGYSPFWQSLGKRFFSMDFSRADFLCGTGQKAFIAELMPKHPIYTHFLSQEAQDVIGQVHPQTAPARAVLEKEGFRYRNYIDIFDGGPTLECDIDRVRAIRKSRLVEVAEGQPAQGDFPACLVANENYHHFRVVLARTDPATERLILTAAQLDALKCHAGDRVRLVRLCAEEKTA	not soluble
MVITKHFAIHGKSYRRKLIKYILNPEKTNNLALVSDYGMKNFLDFPSYEEMVQMYHENFISNDTLYDFRHDRMEENQRKIHAHHIIQSFSPEDHITPEQINRIGYETVKELTGGKFRFIVATHVDKDHLHNHIIINSVDSNSDKKLKWDYKVERNLRMISDRFSKIAGAKIIENRYSHQRYEVYRKTNHKYELKQRLYFLMEHSRDFEDFKKNAPLLHVEMDFRHKHATFFITDSTMKQVVRGKQLNRKQPYTEEFFKNYFAKREIESLMEFLLLKVENMDDLLQKAKLFGLTINPKQKHVSFQFAGVEVKETELDQKNLYDVEFFQDYFKNRKDWQAPETEDFVQLYQEEKLSKEKELPSDEKFWESYQEFKSNRDAVHEFEVELSLNQIEKVVDDGIYVKVKFGIRQEGLIFVPNMQLDMEEDKVKVFIRETSSYYVYHKDAAEKNCYMKGRTLIRQFSYENQTIPLRRKATVDMIKEKIAEVDALIELEVENQSYVTIKDELVHELAASELRINELQERMSTLNQVAEYLLASVESKQEMKLNLSKLNITENISANIVEKKLKSLGNQLELERGRYEKMVVRLDKFINRLNTGLSKGDGIDFQK	not soluble
MVKDCSYSILLPTYNERENLPYILYFIEEVFESMGERYEVIVVDDNSPDGTLEVAKKLQQVFGSDKVVLAPRAGKLGLGSAYSHGLQFAKGNFIIIMDADLSHHPKYIADFVRKQREGSFDVVTGTRYRGEGGVFGWNWRRKLTSVGANLLAQLLLNPGVSDLTGSFRLYRRQAFEQLIHRTRSKGYVFQMEIIVLAKKLGLRVGEVPIVFIDRLYGESKLGGREVIQYLSGLLCLMFQK	soluble
MVKEGWMVHYTSRDNLRKRHYWRLDSKCLTLFQNESGSKYYKEIPLSEILRISSPRDFTNISQGSNPHCFEIITDTMVYFVGENNGDSSHNPVLAATGVGLDVAQSWEKAIRQALM	soluble
MVKLHLKTTCREVPIEEIISTGQIQFFKHLSESTSEFKDQKNVERFRLIYNGRALNEESLKKITDADSIRVVLLPPLKTNNHIEEEQKNRISIALKECTAPYTRPNDRRLHGFNHDFALPDHMTTLLEKHPQLVHDNQFLSVLSDWSLFRAYCVQNDFKDDPIRGQFMYTNPDFLKVVENILSTVGSRYGYENLDYANVERNRPGMLAAQRPIGGAQPVTHALLQNALQAALANIAVPPANRVPAPANVQPAQQQQEEPMQQGYEQQAATLREFGFENDELIQLALEQANGDVQAAMEFLIDLQN	not soluble
MVKRAKLINDVVELIPIFHLLSTETYRKVYNALLEGWYTARELEEMIGEGYRDALRILKNAGMLEAKWRMPSDPGGKPEKEYHVSYTHVSANFYISLKDLNKVLEVVFMSDDEVEEYVREIIKEIEAGRTSVTYITKDLNLDPLFLRAIAKRSLKLNLKGQLIELAKDEEI	not soluble
MVKRTVATNGDASGAHRAKKMSKTHASHIINAQEDYKHMYLSVQPLDIFCWGTGSMCELGLGPLAKNKEVKRPRLNPFLPRDEAKIISFAVGGMHTLALDEESNVWSWGCNDVGALGRDTSNAKEQLKDMDADDSSDDEDGDLNELESTPAKIPRESFPPLAEGHKVVQLAATDNMSCALFSNGEVYAWGTFRCNEGILGFYQDKIKIQKTPWKVPTFSKYNIVQLAPGKDHILFLDEEGMVFAWGNGQQNQLGRKVMERFRLKTLDPRPFGLRHVKYIASGENHCFALTKDNKLVSWGLNQFGQCGVSEDVEDGALVTKPKRLALPDNVVIRSIAAGEHHSLILSQDGDLYSCGRLDMFEVGIPKDNLPEYTYKDVHGKARAVPLPTKLNNVPKFKSVAAGSHHSVAVAQNGIAYSWGFGETYAVGLGPFEDDTEVPTRIKNTATQDHNIILVGCGGQFSVSGGVKLSDEDAEKRADEMDD	soluble
MVKTEPLQITTELPGRTSAYRIAEVRPQVSGIILKRNFKEGSDIEAGVSLYQIDPATYQATYDSAKGDLAKAQAAANIAQLTVNRYQKLLGTQYISKQEYDQALADAQQANAAVTAAKAAVETARINLAYTKVTSPISGRIGKSNVTEGALVQNGQATALATVQQLDPIYVDVTQSSNDMMRLKQELANGTLKQENGKAKVSLITSDGIKFPQDGTLEFSDVTVDQTTGSITLRAIFPNPDHTMMPGMFVRARLEEGLNPNAILVPQQGLEHHHHHH	soluble
MVKVKIYYKDREWPPEYRKVLEKMKEIIDPVTGESILDSGVLAGLEVKGDTLKVWLKFESNAEYNILGSAAMAYSKIVGDIMEKFALVMFDKVYVYDLGNNPIGIFENKGNGRK	soluble
MVLDSGTQVYEQAPPRPPAGSPSQHHKLKPSNGNGPPLYPWPESLGMPLALAVPSALQQQTMWQTFSKLHLEQSSHMRRSESTYSVNSTGRRGRGKAPIGRGCDPGGTLRPAASLPHIAKIRKDVGSSSSKSPCMLVALRPTNMDQEREKFFQSHYTYNPQFEYQEPMPMSVLEKYQEASAQFMNQAVGIIEAVLEKFGTYENFEAATGGQLLTKCQIWSTVRKYMQKEGCVGEIVVQLSEDLLSQAVMMVENSRPTLAINLTGARQYWLEGMLRHEIGTHYLRGVNNSRQPWHSTEGRLQYGLQPANPTEEGLASLHSVLFRKQPFLWRAALLYYTIHQAAHMSFRQLFQDLAQYVQDEGVRWEYCVRAKRGQTDTSQPGCFSKDQVYLDGILRILRHRHTIDFQLLTSLGKVSYEDVEQLRPYGVLDNTRVPHFMKDLERYRQQLEHIMTTNRLDEAELGRLLPD	soluble
MVLEGIHSHDPQARDIAIQYYHAAETTIYDYIARRHPQSAQCVTDFMSTVMSGLSAKAREGHSIEQLCATAALAGEAIKTLLKE	not soluble
MVLLHKSTHIFPTDFASVSRAFFNRYPNPYSPHVLSIDTISRNVDQEGNLRTTRLLKKSGKLPTWVKPFLRGITETWIIEVSVVNPANSTMKTYTRNLDHTGIMKVEEYTTYQFDSATSSTIADSRVKFSSGFNMGIKSKVEDWSRTKFDENVKKSRMGMAFVIQKLEEARNPQF	not soluble
MVLLIIRGDSYEKIKNAIADVHRHAKLTILGKPRIMVPEAADEILEHIVGNIKKPCKKACLVRIEENAPRAIDRIRKIHPPAHIVIVSERHEPYFYLLEDLPKMPLLKGYYKSKSLDSDEEIEESH	not soluble
MVLSIERKRAIVQYVKSRKIATVSELAKHFEVHEATIRRDLTSLEKDKKLKRTHGGVMIEEKVVSEPNWKKRSEVRYEEKQRIATLAATMVKDGDTIILDAGTTTGHIATALKDRSKLTVITNDINVASIMRFSPSKVIVTGGVIYPETFILNGMITSGTLQSIHVHKAFVTTPALDIDKGLMHYDEYLIPAKQQMLHSADEVILVTDHTKFGRISLYKYAALDEISSIITGKEIDPVLKEQFEEKGMQIYTTLEHHHHHH	soluble
MVLWVFGYGSLIWNPGFDFDEKLIGYIKDYKRVFDLACIDHRGTPEHPARTCTLEQSTGAICWGAAYCVRGGPEKEKLAMEYLERRECEYDSKTLVEFYTENDTSTPIVTGVIVFTSTPDKVSNKYYLGPAPLEEMARQIATASGPCGNNREYLFKLEKAMFDIEHEEEYVIELANEVRKQLDLPEEVKALLKPIVSHVSVKSQAHVSTRQRVFAS	soluble
MVLYFIGLGLYDERDITVKGLEIAKKCDYVFAEFYTSLMAGTTLGRIQKLIGKEIRVLSREDVELNFENIVLPLAKENDVAFLTPGDPLVATTHAELRIRAKRAGVESYVIHAPSIYSAVGITGLHIYKFGKSATVAYPEGNWFPTSYYDVIKENAERGLHTLLFLDIKAEKRMYMTANEAMELLLKVEDMKKGGVFTDDTLVVVLARAGSLNPTIRAGYVKDLIREDFGDPPHILIVPGKLHIVEAEYLVEIAGAPMEILRVNV	soluble
